Test results: US6566113B1, “Polypeptide having cellobiohydrolase activity” (Takara Shuzo Co., Ltd., priority 1998, dated 2003)
Each block holds one molecule with its values, some of them ahead of it.

Legend:
[1] = biological target: polypeptide of the present invention (cellobiohydrolase, open reading frame PH1171) (Pyrococcus horikoshii, UniProt O58925); assay: Inhibition of pNPC-degrading activity by glucose, cellobiose and various reagents; assay type: biochemical, Pyrococcus horikoshii OT3; settings: for inhibition of pNPC-degrading activity by dithiothreitol: up to 10 mM
[2] = biological target: Cellobiohydrolase from Thermotoga sp. FjSS-B.1; settings: cellobiohydrolase of Thermotoga sp. FjSS-B.1; read-out: inhibition constant (Ki) for cellobiose; cited from earlier work
[3] = pH and heat stability: remaining CMC-degrading / cellobiohydrolase activity after heating; assay type: biochemical
Procedure: 25 μl of the polypeptide solution of the present invention and 25 μl of one of the buffers prepared in Example 3-(1) were mixed together. The mixture was heated at 95° C. for 10 minutes. 50 μl of 1% CMC solution in 0.1 M MES-NaOH buffer (pH 6.0) was added to 50 μl of a 50-fold dilution of the heated mixture with water. The mixture was reacted at 98° C. for 20 minutes. The amount of reducing sugar contained in a supernatant obtained by centrifuging the reaction mixture was measured according to the Park and Johnson method, and the CMC-degrading activity was calculated.
CMC was dissolved in 0.1 M MES-NaOH buffer (pH 6.0) to prepare a 1% CMC solution (pH 6.0). 50 μl of the MES buffer was added to 50 μl of the polypeptide solution of the present invention. The mixture was heated at 95° C. for 0, 1, 5 or 24 hours. 50 μl of the 1% CMC solution was added to 50 μl of a 50-, 200- or 500-fold dilution of a supernatant obtained by centrifuging the heated mixture with the MES buffer. The mixture was reacted at 98° C. for 20 minutes. The amount of reducing sugar contained in the reaction mixture was measured according to the Park and Johnson method to determine the CMC-degrading activity.

[4] = pNPC-degrading activity on synthetic substrate; assay type: biochemical; settings: 5 mM pNPC, 98° C., 20 minutes, pH 6.0
Procedure: 50 μl of 10 mM pNPC solution in 0.1 M MES-NaOH buffer (pH 6.0) was added to 50 μl of the polypeptide solution of the present invention or a 2-, 5- 10- or 20-fold dilution thereof with 0.1 M MES-NaOH buffer (pH 6.0). The mixture was reacted at 98° C. for 20 minutes. Absorbance at 405 nm of a supernatant obtained by centrifugation was measured to determine the pNPC-degrading activity based on the amount of released p-nitrophenol (pNP).

[5] = Identification of hydrolysis products by silica gel thin-layer chromatography; assay type: biochemical
Procedure: The activity of hydrolyzing cellulose of the expressed polypeptide was identified as follows. Specifically, the expressed polypeptide solution was allowed to act on various substrates. Products were then identified on thin-layer chromatography.
75 μl of the expressed polypeptide solution was added to 75 μl of the phosphoric acid-swollen cellulose. The mixture was reacted at 98° C. for 8 hours. 60 μl of acetonitrile was added to the equal volume of the reaction mixture and mixed. A supernatant obtained by centrifugation was evaporated under reduced pressure to dryness. The residue was dissolved in 10 μl of water. 2 μl of the solution was subjected to silica gel thin-layer chromatography. Two rounds of development were carried out using silica gel 60F254 (Merck) as a thin-layer plate and ethanol:butanol:water=5:5:1 as a solvent for development. Orcinol-sulfuric acid reagent was sprayed onto the thin-layer plate after development and the plate was heated using a hot plate to observe the spots. […]
Reactions were carried out as described above using oligosaccharides as substrates except that the dilution rate of the expressed polypeptide solution was 10 and the reaction time was 2 hours. Supernatants obtained by centrifuging the reaction mixtures were analyzed on silica gel thin-layer chromatography as described above.

[6] = CMC-degrading activity (reducing ends, Park and Johnson method); assay type: biochemical
Procedure: When cellulose is degraded using a cellulose hydrolase such as endoglucanase or cellobiohydrolase, reducing ends of glucose residues are newly generated. Then, increase in the amount of reducing end in a unit reaction time was measured according to the Park and Johnson method using carboxymethylcellulose (CMC) as a substrate in order to confirm whether or not a polypeptide having an activity of hydrolyzing cellulose which newly generates reducing ends of glucose residues existed in the Escherichia coli extract.
A CMC solution was prepared by dissolving CMC (Sigma) in 100 mM sodium citrate buffer (pH 5.0) at a concentration of 1%. […] Absorbance at 690 nm was then measured. The amount of reducing end was determined as the amount of corresponding glucose based on a calibration curve prepared using glucose at a known concentration. […]
50 μl of a 50-fold dilution of the polypeptide solution of the present invention with water, 25 μl of a 2% CMC aqueous solution and 25 μl of one of the above-mentioned buffers were mixed together. […] The amount of reducing sugar contained in a supernatant obtained by centrifuging the reaction mixture was measured according to the Park and Johnson method, and the CMC-degrading activity was calculated. […]

[7] = 4-MUC-degrading activity, specific activity of purified polypeptide; assay type: biochemical; settings: 98° C., pH 6.0, 20 minutes
Procedure: A supernatant obtained by centrifuging the heated supernatant was subjected to anion exchange chromatography using HiTrap Q column (Pharmacia). The sample was applied to two 5 ml HiTrap Q columns connected in series. Elution was carried out using a linear gradient in 20 minutes from 50 mM MES-NaOH buffer (pH 6.0) to the same buffer containing 200 mM NaCl at a flow rate of 2 ml/minute. 50 μl of 6 mM 4-MUC solution in 100 mM MES-NaOH buffer (pH 6.0) was added to 50 μl of one of the serial dilutions of the respective fractions. The mixture was reacted at 98° C. for 20 minutes. Fluorescence value was measured at an excitation wavelength of 355 nm and an emission wavelength of 460 nm. The 4-MUC-degrading activity was calculated based on the amount of released 4-MU.
2 ml of the active fraction from the hydrophobic column chromatography was desalted by ultrafiltration, lyophilized and then hydrolyzed in the presence of gas-phase HCl at 135° C. for 3 hours. The hydrolysate was dissolved in 100 μl of water. […] The polypeptide corresponding to 60 mU of the 4-MUC-degrading activity was subjected to the amino acid analysis. Thus, the specific activity was determined to be 17.0 U/mg.

- inhibition of pNPC-degrading activity by dithiothreitol ([1]; 5 mM pNPC, 98° C., pH 6.0): not inhibited
- inhibition of pNPC-degrading activity by dithiothreitol ([1]; 5 mM pNPC, 98° C., pH 6.0, listed as dithiothreitol): Almost no inhibition
Molecule: O[C@H](CS)[C@H](O)CS (racemic) [DTT, dithiothreitol]

Molecule: O=C(O)CN(CCN(CC(=O)O)CC(=O)O)CC(=O)O [EDTA, ethylenediaminetetraacetic acid]
- inhibition at 1000 µM ([1]; pH 6, read-out: inhibition of pNPC-degrading activity): ~50%
- inhibition of pNPC-degrading activity ([1]; reagent at 1 mM, 5 mM pNPC, 98° C., pH 6.0): about 50%

Molecule: O=C[C@H](O)[C@@H](O)[C@H](O[C@@H]1O[C@H](CO)[C@@H](O)[C@H](O)[C@H]1O)[C@H](O)CO [cellobiose]
- Ki [2]: 200 µM

B1: polypeptide of the present invention: polypeptide of SEQ ID NO:1 with thermostable cellobiohydrolase activity, expressed from open reading frame PH1171 of Pyrococcus horikoshii OT3 (protein)
chain: ENTTYQTPTGIYYEVRGDTIYMINVTSGEETPIHLFGVNWFGFETPNHVVHGLWKRNWEDMLLQIKSLGFNAIRLPFCTESVKPGTQPIGIDYSKNPDLRGLDSLQIMEKIIKKAGDLGIFVLLDYHRIGCTHIEPLWYTEDFSEEDFINTWIEVAKRFGKYWNVIGADLKNEPHSVTSPPAAYTDGTGATWGMGNPATDWNLAAERIGKAILKVAPHWLIFVEGTQFTNPKTDSSYKWGYNAWWGGNLMAVKDYPVNLPRNKLVYSPHVYGPDVYNQPYFGPAKGFPDNLPDIWYHHFGYVKLELGYSVVIGEFGGKYGHGGDPRDVIWQNKLVDWMIENKFCDFFYWSWNPDSGDTGGILQDDWTTIWEDKYNNLKRLMDSCSKSSSSTQSVIRSTTPTKSNTSKKICGPAILIILAVFSLLLRRAPR
modifications: Pyrococcus horikoshii OT3
- activity after heating in the absence of a substrate ([3]; 95° C. for 10 minutes at pH 5 to 7): not decreased
- retained CMC-degrading activity after heating ([3]; 95° C. for 24 hours, pH 6.0): about 90%
- remaining activity after heating ([3]; 95° C., pH 6, heating for additional 24 hours): About 80%
- retained activity after heating ([3]; in the presence of a substrate at pH 6 at 95° C. for 5 hours): about 90%
- retained cellobiohydrolase activity after heat treatment ([3]; treatment at 75° C. for 20 minutes): ≥ 80%
- retained cellobiohydrolase activity after heat treatment ([3]; treatment at 95° C. for 10 minutes): ≥ 80%
- retained cellobiohydrolase activity after heat treatment ([3]; treatment at 95° C. for 5 hours): ≥ 80%
- pNPC-degrading activity versus amount of polypeptide [4]: increased depending on the concentration
- product from phosphoric acid-swollen cellulose (TLC) ([5]; 98° C. for 8 hours): generation of cellobiose
- product from cellooligosaccharides (TLC) ([5]; cellotriose, cellotetraose, cellopentaose, 10-fold dilution, 98° C., 2 hours, pH 6.0): principal degradation product was cellobiose
- activity relative to that in the presence of 0.5 M NaCl ([6]; 2.5 M NaCl): about 60%
- activity relative to that in the presence of 0.5 M NaCl ([6]; absence of NaCl): about 80%
- specific activity (4-MUC-degrading activity) [7]: 17.0 U/mg
